Measurements taken from patent US20250276077A1, “EPHA2 ANTIBODIES” (Immunome, Inc., priority 2022, published 2025).

What was measured:
A549 cells = assay: ADCC (KILR target cells, NK92 CD16 chimera effector cells); assay type: cell-based, human; conditions: A549 tumor cells
Summary of the method: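 KILR target cells opsonised with antibody at various concentrations for 20 min at room temperature, then co-cultured 4 h at 37 °C with NK92 effectors bearing a mouse–human CD16 chimera at 5:1 effector:target. Luminescent KILR readout; cytotoxicity background-subtracted and given as percent of maximum lysis.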

PC3 tumors = assay: In vivo PC3 model in NPG mice, ZLA-conjugated EphA2 antibodies; parameters: species or system mouse; conditions: ZLA conjugates in both IgG1 and IgG4 formats; 3 and 6 mg/kg; ~150 mm^3 and ~400 mm^3 PC3 tumors
Protocol: This experiment assessed the activity of ZLA-Conjugated EphA2 antibodies AB-010671-ZLA and AB-010699-ZLA in vivo. 2×10^6 PC3 cells were inoculated in 0.2 mL of 1:1 DPBS with Matrigel subcutaneously into each of the male NPG mice. Tumors were allowed to establish and then randomized at an average size of 150 mm^3 with 10 mice per treatment cohort. Treatment started at the day of randomization (Day 0) with weekly intravenous injections of the conjugates at the indicated doses. Body weight as well as tumor sizes were monitored twice weekly. Study was ended at day 35 after 5 doses. At endpoint, mice were euthanized, and tumors excised and weighted.
The assay was repeated with AB-010699 and AB-010671 in both IgG1 and IgG4 formats at 1, 3, and 6 mg/kg, AB-010016, and vehicle and isotype controls in mice carrying PC3 tumor cells measuring ˜150 mm^3 or ˜400 mm^3. […] FIG. 60B and FIG. 61B show the body weight of the mice over the course of the studies.

[1] = system: SKOV3, MDAMB231, and PC3 tumor cells
Protocol: This experiment tested the cytotoxicity of antibody-drug conjugates (“conjugates”) each comprising an EphA2 antibody directly conjugated via a lysine to a ZymeLink™ Auristatin (ZLA) payload having structure (1) as disclosed above on SKOV3, MDAMB231, and PC3 tumor cells. […] The average drug to antibody ratio (DAR) for each molecule ranges from 2.9 and 3.6 as determined by Mass Spectrometry. […] 2,500 cells were added to each well of a 96 well plate and incubated with different concentrations of directly conjugated primary antibody for 15 min at room temperature. Cells were then incubated for 72 h at 37° C. and 5% CO2. At the end of the incubation period, 100 μl CellTiter-Glo® was added to each well and allowed to incubate for 5-10 min at room temperature before reading luminescence in a BMG ClarioSTAR plate reader. Data were then normalized to a maximum lysis control and plotted using graph pad prism software.

EC50 (A549 cells): ~6 pM
B1: AB-010671: VH SEQ ID NO: 624, VL SEQ ID NO: 689; H107TI; L29SY; L92SH relative to AB-010357 (antibody, V domains shown)
VH: QVQLQQWGAGLLKPSETLSLTCAVYGGSFSDYYWSWIRQPPGKGLEWIGEINHRGSINYNNYNPSLKSRVTISVDTSKNQFSLKLSSVTAADTAVYYCAKPLRPHCINGVCYSGDAFDIWGQGTMVTVAS
VL: SYVLTQPPSVSVAPGQTARITCGGNNIGYKNVHWYQQKPGQAPVLVVYDDSDRPSGIPEQFSGSNSGNTATLTISRVEAGDEADYYCQVWDHSSDHVVFGGGTKLTVL
ADCC - dAct rel. parent, Trial 1 (A549 cells; Trial 1, relative to parent antibody): 157.1%
ADCC - dAct rel. parent, Trial 2 (A549 cells; Trial 2, relative to parent antibody): 106.7%
anti-tumor activity, repeat study (PC3 tumors): anti-tumor activity
cytotoxic activity of ZLA conjugates (in words) [1]: higher potency but similar maximum cytotoxicity compared to AB-010361-ZLA and AB-010361-IgG4-ZLA
